Tests used:
[1] = target: chimeric receptor consisting of the extracellular domain of mouse VEGFR-2 and the transmembrane and … (mouse, UniProt P35918 20-762; P14753 250-507, limits assumed); assay: cell-based or functional assay
[2] = target: T1, VEGFR-1-Ig (human, UniProt P17948 27-758); assay: precipitation of 35S-labeled conditioned medium with receptor-Ig on protein A-Sepharose, SDS-PAGE, phosphorimager
T1 construct: extracellular domain; also called soluble Ig-fusion protein containing the extracellular domain of human VEGFR-1; not shown: Fc portion of human IgG1
T1 sequence (P17948 27-758): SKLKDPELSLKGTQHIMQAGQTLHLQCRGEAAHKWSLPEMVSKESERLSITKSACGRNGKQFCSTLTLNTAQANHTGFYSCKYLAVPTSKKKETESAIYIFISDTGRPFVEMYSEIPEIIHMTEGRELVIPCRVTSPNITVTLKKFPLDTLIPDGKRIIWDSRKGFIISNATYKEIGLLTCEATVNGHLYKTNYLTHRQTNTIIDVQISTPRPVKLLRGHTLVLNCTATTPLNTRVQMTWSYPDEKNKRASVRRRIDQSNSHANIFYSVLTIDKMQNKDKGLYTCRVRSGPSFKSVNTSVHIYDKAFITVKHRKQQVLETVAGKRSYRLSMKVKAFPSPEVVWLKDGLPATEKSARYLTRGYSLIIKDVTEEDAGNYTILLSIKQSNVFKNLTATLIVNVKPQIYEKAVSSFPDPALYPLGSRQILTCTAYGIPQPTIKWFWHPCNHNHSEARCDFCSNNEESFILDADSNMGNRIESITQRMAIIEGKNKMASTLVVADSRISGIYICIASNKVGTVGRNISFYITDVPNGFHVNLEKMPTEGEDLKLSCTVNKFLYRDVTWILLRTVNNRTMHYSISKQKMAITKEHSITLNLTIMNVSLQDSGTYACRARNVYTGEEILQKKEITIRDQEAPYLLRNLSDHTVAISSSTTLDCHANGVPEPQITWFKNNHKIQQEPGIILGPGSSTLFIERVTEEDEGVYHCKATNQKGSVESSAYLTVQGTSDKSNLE
Method: (§1) To further assess the interactions between ORFV2-VEGF and the VEGFRs, ORFV2-VEGF was tested for its capacity to bind to soluble Ig-fusion proteins containing the extracellular domains of human VEGFR-1, VEGFR-2 and VEGFR-3. The fusion proteins, designated VEGFR-1-Ig, VEGFR-2-Ig and VEGFR-3-Ig, were transiently expressed in 293 EBNA cells. All Ig fusion proteins were human VEGFRs. Cells were incubated for 24 hours after transfection, washed with DMEM containing 0.2% bovine serum albumin and starved for 24 hours. The fusion proteins were then precipitated from the clarified conditioned medium using protein A-Sepharose beads. The beads were combined with 100 µl of 10x binding buffer (5% bovine serum albumin, 0.2% Tween 20 and 10 µg/ml heparin) and 900 µl of conditioned medium from 293 cells that had been transfected with expression plasmids encoding VEGF, VEGF-DΔNΔC,ORFV2-VEGF or control vector, then metabolically labeled with ^35S-cysteine/methionine for 4 to 16 hours. After 2.5 hours, at room temperature, the Sepharose beads were washed 3 times with binding buffer at 4° C., once with phosphate buffered saline and boiled in SDS-PAGE buffer. Labeled proteins that were bound to the Ig-fusion proteins were analyzed by SDS-PAGE under reducing conditions. Radiolabeled proteins were detected using a phosphorimager analyzer.

[3] = target: T2, VEGFR-2-Ig (human, UniProt P35968 20-764); assay: as above
T2 construct: extracellular domain; also called soluble Ig-fusion protein containing the extracellular domain of human VEGFR-2; not shown: Fc portion of human IgG1
T2 sequence (P35968 20-764): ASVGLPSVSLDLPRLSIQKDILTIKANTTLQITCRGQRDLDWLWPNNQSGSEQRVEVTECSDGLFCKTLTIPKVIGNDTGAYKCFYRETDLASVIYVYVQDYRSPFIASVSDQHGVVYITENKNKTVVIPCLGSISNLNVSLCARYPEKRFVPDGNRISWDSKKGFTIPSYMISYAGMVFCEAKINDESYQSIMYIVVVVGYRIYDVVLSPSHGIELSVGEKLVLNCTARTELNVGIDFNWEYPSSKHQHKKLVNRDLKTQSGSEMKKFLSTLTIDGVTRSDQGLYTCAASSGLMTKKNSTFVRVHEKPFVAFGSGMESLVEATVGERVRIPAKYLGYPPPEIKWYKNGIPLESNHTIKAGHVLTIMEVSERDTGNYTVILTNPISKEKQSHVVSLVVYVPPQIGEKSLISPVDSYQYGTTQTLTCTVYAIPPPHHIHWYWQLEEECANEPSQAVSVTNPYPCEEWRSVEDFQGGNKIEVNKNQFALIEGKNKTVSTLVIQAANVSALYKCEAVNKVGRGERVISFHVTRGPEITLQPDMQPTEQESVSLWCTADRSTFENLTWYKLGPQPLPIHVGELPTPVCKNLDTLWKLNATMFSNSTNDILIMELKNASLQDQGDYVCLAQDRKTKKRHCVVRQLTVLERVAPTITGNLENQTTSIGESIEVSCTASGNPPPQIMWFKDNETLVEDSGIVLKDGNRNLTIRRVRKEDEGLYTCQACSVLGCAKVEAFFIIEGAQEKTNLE
Method: as §1

[4] = target: T3, VEGFR-3-Ig (human, UniProt P35916 25-775); assay: as above
T3 construct: extracellular domain; also called soluble Ig-fusion protein containing the extracellular domain of human VEGFR-3; not shown: Fc portion of human IgG1
T3 sequence (looked up): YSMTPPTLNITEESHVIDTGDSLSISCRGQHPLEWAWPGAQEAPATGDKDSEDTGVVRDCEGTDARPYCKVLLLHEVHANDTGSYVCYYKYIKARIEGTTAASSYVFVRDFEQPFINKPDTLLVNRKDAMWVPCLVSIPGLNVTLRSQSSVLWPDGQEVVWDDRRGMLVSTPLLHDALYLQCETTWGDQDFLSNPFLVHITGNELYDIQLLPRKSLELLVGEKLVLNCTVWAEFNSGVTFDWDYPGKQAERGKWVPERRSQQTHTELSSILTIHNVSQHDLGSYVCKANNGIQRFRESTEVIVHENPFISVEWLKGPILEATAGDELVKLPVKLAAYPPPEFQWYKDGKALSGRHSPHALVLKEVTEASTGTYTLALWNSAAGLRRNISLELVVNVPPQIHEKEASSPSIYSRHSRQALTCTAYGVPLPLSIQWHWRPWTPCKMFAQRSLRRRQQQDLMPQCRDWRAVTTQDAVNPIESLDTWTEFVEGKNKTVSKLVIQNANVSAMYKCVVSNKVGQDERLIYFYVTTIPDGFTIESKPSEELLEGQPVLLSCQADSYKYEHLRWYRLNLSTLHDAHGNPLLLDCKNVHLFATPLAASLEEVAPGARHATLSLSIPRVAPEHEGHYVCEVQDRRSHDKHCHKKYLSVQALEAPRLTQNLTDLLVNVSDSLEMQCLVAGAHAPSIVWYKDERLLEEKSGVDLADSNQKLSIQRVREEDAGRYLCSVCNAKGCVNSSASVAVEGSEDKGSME
Method: as §1

[5] = target: T1, VEGFR-1-Ig; assay: not described; told in Example 3 with the receptor-Ig precipitations

Sequence of chimeric receptor consisting of the extracellular domain of mouse VEGFR-2 and the transmembrane and … (P35918 other isoform, or with tags, fused parts or gaps mutant limits assumed): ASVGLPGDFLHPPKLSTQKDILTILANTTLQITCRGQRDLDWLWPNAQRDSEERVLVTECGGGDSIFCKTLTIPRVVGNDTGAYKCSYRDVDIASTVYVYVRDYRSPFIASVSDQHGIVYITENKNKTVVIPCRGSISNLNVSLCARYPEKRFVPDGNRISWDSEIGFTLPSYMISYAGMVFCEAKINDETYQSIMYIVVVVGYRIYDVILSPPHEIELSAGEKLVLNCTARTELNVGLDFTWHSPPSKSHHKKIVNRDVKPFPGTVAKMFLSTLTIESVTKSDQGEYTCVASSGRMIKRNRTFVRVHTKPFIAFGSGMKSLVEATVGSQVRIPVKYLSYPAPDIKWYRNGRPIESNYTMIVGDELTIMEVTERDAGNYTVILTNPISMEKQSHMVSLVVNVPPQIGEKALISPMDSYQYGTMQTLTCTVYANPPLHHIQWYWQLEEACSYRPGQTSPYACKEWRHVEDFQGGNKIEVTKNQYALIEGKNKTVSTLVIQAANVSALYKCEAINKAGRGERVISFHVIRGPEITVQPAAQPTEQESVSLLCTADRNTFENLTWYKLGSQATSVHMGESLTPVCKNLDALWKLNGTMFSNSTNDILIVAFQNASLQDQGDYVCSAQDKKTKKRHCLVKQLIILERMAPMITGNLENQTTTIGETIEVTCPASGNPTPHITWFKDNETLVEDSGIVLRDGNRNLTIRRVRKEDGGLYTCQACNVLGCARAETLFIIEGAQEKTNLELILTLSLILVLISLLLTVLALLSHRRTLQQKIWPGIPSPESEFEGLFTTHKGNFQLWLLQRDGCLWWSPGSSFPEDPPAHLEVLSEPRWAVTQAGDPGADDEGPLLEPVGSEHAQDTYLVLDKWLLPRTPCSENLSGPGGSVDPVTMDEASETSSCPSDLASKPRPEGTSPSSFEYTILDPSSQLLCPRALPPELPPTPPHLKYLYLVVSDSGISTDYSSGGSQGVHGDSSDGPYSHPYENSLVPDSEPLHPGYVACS

B1: FLAG-tagged ORFV2-VEGF (ligand)
chain: DSNTKGWSEVLKGSECKPRPIVVPVSETHPELTSQRFNPPCVTLMRCGGCCNDESLECVPTEEVNVTMELLGASGSGSNGMQRLSFVEHKKCDCRPRFTTTPPTTTRPPRRRR
notes: Disulfide-linked homodimer, glycosylated; Expressed in COS or 293EBNA cells; also called NZ2; ORVF2-VEGF; not shown: FLAG octapeptide at the C-terminus
In the case of B1, the “potency in the Ba/F3 VEGFR-2-EpoR bioassay compared to mouse VEGF” value [1] is reported as ~4 fold less potent than mouse VEGF, the binding result [2] is reported as “no binding” and the binding result [3] is reported as “binds”. B1: no binding [4].

B2: FLAG-tagged NZ10 (ligand)
chain: DSTKTWSEVFESSKCKPRPTVVPVGEAHPELTSQRFNPQCVTVMRCGGCCNDESLECVPTEEANVTMQLMGASVSGGNGMQHLIFVEHKKCDCKPRLTTTPPTTTRPPRRRR
notes: Disulfide-linked homodimer, secreted from 293EBNA-1 cells and purified on M2-gel; also called ORFV10-VEGF; not shown: FLAG octapeptide at the C-terminus
B2: no binding [5].

B3: mouse VEGF164 (ligand, UniProt Q00731-2 27-190, looked up)
chain: APTTEGEQKSHEVIKFMDVYQRSYCRPIETLVDIFQEYPDEIEYIFKPSCVPLMRCAGCCNDEALECVPTSESNITMQIMRIKPHQSQHIGEMSFLQHSRCECRPKKDRTKPENHCEPCSERRKHLFVQDPQTCKCSCKNTDSRCKARQLELNERTCRCDKPRR
B3: binds [2]; binds [3]; no binding [4].

Source: patent publication US6541008 (UNIVERSITY OF OTAGO, dated 2003)
